Source: US20090022738A1 (MICROMET, published 2009)
Changes are numbered by the printed parent chain.

T1: CD19 (human, UniProt P15391 20-556)
T1 construct: whole, on cells; also called CD19 on NALM-6 cells
T1 sequence (looked up): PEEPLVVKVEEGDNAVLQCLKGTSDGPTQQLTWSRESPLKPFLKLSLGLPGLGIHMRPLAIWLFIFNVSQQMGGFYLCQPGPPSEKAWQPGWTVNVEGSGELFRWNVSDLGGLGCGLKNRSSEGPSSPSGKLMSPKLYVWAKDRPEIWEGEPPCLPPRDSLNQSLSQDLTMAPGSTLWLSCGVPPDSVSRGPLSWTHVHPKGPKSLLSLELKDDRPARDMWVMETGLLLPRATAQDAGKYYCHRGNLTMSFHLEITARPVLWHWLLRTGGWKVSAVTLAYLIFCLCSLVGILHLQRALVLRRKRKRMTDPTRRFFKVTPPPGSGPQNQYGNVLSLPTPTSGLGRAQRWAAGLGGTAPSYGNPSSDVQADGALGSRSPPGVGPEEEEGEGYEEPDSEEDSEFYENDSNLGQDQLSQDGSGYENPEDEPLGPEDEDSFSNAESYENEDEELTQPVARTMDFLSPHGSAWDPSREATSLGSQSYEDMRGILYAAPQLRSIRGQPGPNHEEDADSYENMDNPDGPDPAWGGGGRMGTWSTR

T2: Epithelial cell adhesion molecule (EpCAM) (human, UniProt P16422 24-314)
T2 construct: whole, on cells; also called 17-1A antigen; KSA
T2 sequence (looked up): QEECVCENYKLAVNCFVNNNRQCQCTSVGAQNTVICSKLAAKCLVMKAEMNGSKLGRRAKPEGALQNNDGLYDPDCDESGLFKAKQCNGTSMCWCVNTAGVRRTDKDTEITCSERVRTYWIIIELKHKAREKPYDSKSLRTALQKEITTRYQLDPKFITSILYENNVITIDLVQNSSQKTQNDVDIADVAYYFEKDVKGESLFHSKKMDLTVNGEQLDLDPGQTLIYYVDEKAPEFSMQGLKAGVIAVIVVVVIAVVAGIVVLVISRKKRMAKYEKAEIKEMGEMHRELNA

B1: anti-CD19×anti-CD3 (VH5/VL1) (SEQ ID NO.:190) (bispecific antibody)
chain: DIQLTQSPASLAVSLGQRATISCKASQSVDYDGDSYLNWYQQIPGQPPKLLIYDASNLVSGIPPRFSGSGSGTDFTLNIHPVEKVDAATYHCQQSTEDPWTFGGGTKLEIKGGGGSGGGGSGGGGSQVQLQQSGAELVRPGSSVKISCKASGYAFSSYWMNWVKQRPGQGLEWIGQIWPGDGDTNYNGKFKGKATLTADESSSTAYMQLSSLASEDSAVYFCARRETTTVGRYYYAMDYWGQGTTVTVSSGGGGSDVQLVQSGAEVKKPGASVKVSCKASGYTFTRYTMHWVRQAPGQGLEWIGYINPSRGYTNYADSVKGRFTITTDKSTSTAYMELSSLRSEDTATYYCARYYDDHYCLDYWGQGTTVTVSSGEGTSTGSGGSGGSGGADDIQMTQSPSSLSASVGDRVTITCRASQSVSYMNWYQQKPGKAPKRWIYDTSKVASGVPARFSGSGSGTDYSLTINSLEAEDAATYYCQQWSSNPLTFGGGTKVEIK
notes: As m4: bispecific single chain, His-tagged; also called pEF anti-CD19×anti-CD3 (VH5/VL1)
B2: anti-CD19×anti-CD3 (VH7/VL1) (SEQ ID NO.:196) (bispecific antibody)
chain: B1 chain with A316N, D317Q, S318K, V319F, G321D, F323V, T348V
notes: As m4: bispecific single chain, His-tagged; also called pEF anti-CD19×anti-CD3 (VH7/VL1)
B3: 5-10×anti-CD3 (VH5/VL2) (SEQ ID NO.:63) (bispecific antibody)
chain: ELVMTQSPSSLTVTAGEKVTMSCKSSQSLLNSGNQKNYLTWYQQKPGQPPKLLIYWASTRESGVPDRFTGSGSGTDFTLTISSVQAEDLAVYYCQNDYSYPLTFGAGTKLEIKGGGGSGGGGSGGGGSEVQLLEQSGAELVRPGTSVKISCKASGYAFTNYWLGWVKQRPGHGLEWIGDIFPGSGNIHYNEKFKGKATLTADKSSSTAYMQLSSLTFEDSAVYFCARLRNWDEPMDYWGQGTTVTVSSGGGGSDVQLVQSGAEVKKPGASVKVSCKASGYTFTRYTMHWVRQAPGQGLEWIGYINPSRGYTNYADSVKGRFTITTDKSTSTAYMELSSLRSEDTATYYCARYYDDHYCLDYWGQGTTVTVSSGEGTSTGSGGSGGSGGADDIVLTQSPATLSLSPGERATLSCRASQSVSYMNWYQQKPGKAPKRWIYDTSKVASGVPARFSGSGSGTDYSLTINSLEAEDAATYYCQQWSSNPLTFGGGTKVEIK
notes: Bispecific single chain with anti-EpCAM at the N-terminus; tested as CHO culture supernatant; detected by anti-His; also called pEF-DHFR-5-10×anti-CD3 (VH5/VL2); Nr.54
B4: anti-CD19×anti-CD3 (VH7/VL2) (SEQ ID NO.:198) (bispecific antibody)
chain: DIQLTQSPASLAVSLGQRATISCKASQSVDYDGDSYLNWYQQIPGQPPKLLIYDASNLVSGIPPRFSGSGSGTDFTLNIHPVEKVDAATYHCQQSTEDPWTFGGGTKLEIKGGGGSGGGGSGGGGSQVQLQQSGAELVRPGSSVKISCKASGYAFSSYWMNWVKQRPGQGLEWIGQIWPGDGDTNYNGKFKGKATLTADESSSTAYMQLSSLASEDSAVYFCARRETTTVGRYYYAMDYWGQGTTVTVSSGGGGSDVQLVQSGAEVKKPGASVKVSCKASGYTFTRYTMHWVRQAPGQGLEWIGYINPSRGYTNYNQKFKDRVTITTDKSTSTAYMELSSLRSEDTAVYYCARYYDDHYCLDYWGQGTTVTVSSGEGTSTGSGGSGGSGGADDIVLTQSPATLSLSPGERATLSCRASQSVSYMNWYQQKPGKAPKRWIYDTSKVASGVPARFSGSGSGTDYSLTINSLEAEDAATYYCQQWSSNPLTFGGGTKVEIK
notes: As m4: bispecific single chain, His-tagged; all other places say VH7/VL2
B5: anti-CD19×anti-CD3 (VH7/VL3) (SEQ ID NO.:200) (bispecific antibody)
chain: B4 chain with S414T, Q419S
notes: As m4: bispecific single chain, His-tagged; also called pEF anti-CD19×anti-CD3 (VH7/VL3); anti-CD3 (VH7/VK3)
B6: deimmunized anti-CD3 (VH5/VL2)×5-10 (VL-VH) (SEQ ID NO.:39) (bispecific antibody)
chain: DVQLVQSGAEVKKPGASVKVSCKASGYTFTRYTMHWVRQAPGQGLEWIGYINPSRGYTNYADSVKGRFTITTDKSTSTAYMELSSLRSEDTATYYCARYYDDHYCLDYWGQGTTVTVSSGEGTSTGSGGSGGSGGADDIVLTQSPATLSLSPGERATLSCRASQSVSYMNWYQQKPGKAPKRWIYDTSKVASGVPARFSGSGSGTDYSLTINSLEAEDAATYYCQQWSSNPLTFGGGTKVEIKSGGGGSELVMTQSPSSLTVTAGEKVTMSCKSSQSLLNSGNQKNYLTWYQQKPGQPPKLLIYWASTRESGVPDRFTGSGSGTDFTLTISSVQAEDLAVYYCQNDYSYPLTFGAGTKLEIKGGGGSGGGGSGGGGSEVQLLEQSGAELVRPGTSVKISCKASGYAFTNYWLGWVKQRPGHGLEWIGDIFPGSGNIHYNEKFKGKATLTADKSSSTAYMQLSSLTFEDSAVYFCARLRNWDEPMDYWGQGTTVTVSS
notes: Bispecific single chain, VH(CD3)-VL(CD3)-VL(EpCAM)-VH(EpCAM); detected by anti-His; also called anti-CD3 (VH5/VL2)x5-10 (VL-VH)

How the values were obtained:
human CD3 [1] = biological target: T3, human CD3 (human, UniProt P07766 23-207; P04234 22-171; P09693 23-182); assay: FACS, non-diluted crude supernatant on CD3-enriched PBMCs; anti-His + FITC anti-mouse
T3 construct: whole, on cells; also called CD3 antigen; human CD3 complex
Method: (§1) In order to analyze the binding efficacy of the deimmunized constructs to CD3 and CD19 a FACS-based assay was performed. Initially, crude supernatants were tested for binding on CD3-enriched PBMCs or CD19-positive NALM-6 cells. Cells were incubated with non-diluted supernatants for 30 minutes at 8° C. Upon two wash steps the cells were labeled with an anti-His antibody (Qiagen) under the same conditions. After additional wash steps binding of the constructs was detected with a FITC-conjugated sheep anti-mouse antibody (Sigma). Cells were analyzed with a FACS Calibur cytometer (B&D). As controls supernatants of anti-CD19×anti-CD3 and GFP-transfected cells were included. […] The positive control, which was a non-deimmunized anti-CD19×anti-CD3 construct reached a MFI of around 60 showing that the deimmunized constructs comprising anti-CD3 (VH5/VL1) (SEQ ID NO.:190), anti-CD3 (VH5/VL2) (SEQ ID NO.:192), anti-CD3 (VH5/VL3) (SEQ ID NO.:194), anti-CD3 (VH7/VL1) (SEQ ID NO.:196), anti-CD3 (VH7/VL2) (SEQ ID NO.:198) and anti-CD3 (VH7/VL3) (SEQ ID NO.:200) bound CD3 with extremely high efficacy.

human CD3 [2] = biological target: T3, human CD3; assay: FACS, purified construct at 0.5 µg/ml as printed, on CD3 positive cells
CD19 [3] = biological target: T1, CD19; assay: FACS, purified constructs at 1 and 5 µg/ml on CD19-positive NALM cells
Method: Binding was measured by a FACS-based assay using CD3 enriched PBMCs (A) or CD19-positive NALM-cells (B). A secondary antibody with CD3 positive cells was used as a negative control in (A) and a secondary antibody with CD19 positive cells was used as a negative control in (B). Constructs anti-CD19×anti-CD3 and anti-EpCAM (M79)×anti-CD3 were used as controls. Assay was carried out with concentrations of 1 μg/ml and 5 μg/ml. MFI indicates mean fluorescence intensity.
as §1

CD19 [4] = biological target: T1, CD19; assay: FACS, crude supernatant on CD19-positive NALM-6 cells; negative control MFI ca. 3
Method: as §1
The FACS-based binding assay was also carried out for CD19. In this experiment CD19 and a secondary antibody was as a negative control. In this experiment, all assayed constructs achieved a MFI of at least 80 while the MFI of the negative control was ca. 3.

[5] = biological target: T2, Epithelial cell adhesion molecule …; assay: FACS, culture supernatant on Kato cells (for EpCAM binding); anti-His detection
Method: (§2) 250000 Jurkat cells (for CD3 binding) and Kato cells (for EpCAM binding) were independently incubated with cell culture supernatants (50 μl) containing the bispecific construct (pEF-DHFR-3-1×anti-CD3 (VH5/VL2) (Nr.50, SEQ ID NO.: 48) and pEF-DHFR-5-10×anti-CD3 (VH5/VL2) (Nr.54) (SEQ ID NO.:62), respectively) for 45 min. at 4° C. Thereafter, the cells were washed twice in FACS buffer (phosphate-buffered saline containing 1% fetal calf serum (FCS) and 0.05% sodium azide) and incubated with mouse anti-His antibody (Dianova, DIA910) for 60 min. at 4° C. Washing steps were performed as above.
(§3) The cells were finally incubated either with goat anti-mouse Ig-FITC-conjugated antibody (BD 550003) or with anti-mouse IgG conjugated with PE (Sigma, P8547). After washing steps, 10000 events were analysed using FACS Calibur (B&D).

human CD3 [6] = biological target: T3, human CD3; assay: FACS, culture supernatant on Jurkat cells; anti-His detection
Method: as §2, §3

human CD3 [7] = biological target: T3, human CD3; assay: FACS, 10 µg/ml on Jurkat cells
Method: (§4) Binding of the bispecific single chain molecules with anti-CD3 part in N-terminal orientation to EpCAM and CD3 were confirmed by FACS analyses. For that purpose the EpCAM positive human gastric cancer cell line Kato III (ATCC HTB-103) was used.
(§5) Cells were cultured according to the recommendations of the supplier and a number of 200000 cells was incubated with 10 μg/ml of the construct in 50 μl PBS with 2% FCS (fetal calf serum). The binding of the construct was detected with an anti-His antibody (Penta-His Antibody, obtained from Qiagen, Hilden, FRG) at 2 μg/ml in PBS with 2% FCS. […] The samples were measured on a FACSscan (BD biosciences, Heidelberg, FRG).

[8] = biological target: T2, Epithelial cell adhesion molecule …; assay: FACS, 10 µg/ml on EpCAM positive Kato III cells
Method: as §4, §5

Binder | MFI (human CD3 [1]) [MFI] | fold over the negative control (secondary antibody only, MFI ca. 3.5) (human CD3 [1]) [fold] | MFI (human CD3 [2]) [MFI] | MFI (CD19 [3]) [MFI] | MFI (CD19 [4]) [MFI] | binding result [5] | binding result (human CD3 [6]) | binding result (human CD3 [7]) | binding result [8]
B1 | ≥ 90 | ~25 | ≥ 40 | ~200 | ≥ 80 | – | – | – | –
B2 | ≥ 90 | ~25 | ≥ 40 | ~200 | ≥ 80 | – | – | – | –
B3 | – | – | – | – | – | binds | binds | – | –
B4 | ≥ 90 | ~25 | 25 | ~200 | ≥ 80 | – | – | – | –
B5 | ≥ 90 | ~25 | ≥ 40 | ~200 | ≥ 80 | – | – | – | –
B6 | – | – | – | – | – | – | – | binds | binds
